Measured values: publication PMC11357854

Columns and labels:
[1] = biological target: PDK1 catalytic domain, 50-359 (UniProt O15530); experiment: AlphaScreen GST-PRK2 / His-PDK1; details: reference: wild type; sites T958
PDK1 1-556 = PDK1 1-556 (UniProt O15530); experiment: AlphaScreen GST-PRK2 / His-PDK1; details: reference: wild type; sites T958

PRK2 (PKN2) 1-984 (from UniProt Q16513) T958A
binding against the reference [1]: stronger | binding against the reference (PDK1 1-556): stronger

PRK2 (PKN2) catalytic domain, 643-984 (from UniProt Q16513) T958A
binding against the reference [1]: stronger
